In publication PMC7521653, “Structural analysis of the LDL receptor–interacting FERM domain in the E3 ubiquitin ligase IDOL reveals an obscured substrate-binding site” (The Journal of Biological Chemistry, 2020):

Biological target: the molecule itself
Test: crystal structure; F3ab (183-283), space group P2(1)2(1)2(1), three copies in the asymmetric unit; crystals from 100 mM Hepes, pH 7.0, 10% (w/v) PEG 6000

B1: IDOL F3ab subdomain (residues 183-283) (domain or fragment, human, UniProt Q8WY64 183-283, looked up)
chain: ENYGIEWHSVRDSEGQKLLIGVGPEGISICKDDFSPINRIAYPVVQMATQSGKNVYLTVTKESGNSIVLLFKMISTRAASGLYRAITETHAFYRCDTVTSA
notes: IDOL (MYLIP), human, F3ab subdomain, residues 183-283; E. coli codon-optimised gene in pET28(a); The construct holds an incomplete F3c' (279-283 of 279-300); also called FERM F3ab; third lobe of the FERM domain; not shown: His6, N-terminal, cleaved
Q: Does B1 bind?
A: binds
